This passage reports GTP-bound RalA levels (RalA activation assay, RalBP1 agarose pull-down) and binding level (percent, co-immunoprecipitation densitometry) results from patent US20110306057A1.

Chain of PP2A regulatory subunit B56δ (human (endogenous in human HEK TER cells)) (Q14738 whole entry, stated change not applied): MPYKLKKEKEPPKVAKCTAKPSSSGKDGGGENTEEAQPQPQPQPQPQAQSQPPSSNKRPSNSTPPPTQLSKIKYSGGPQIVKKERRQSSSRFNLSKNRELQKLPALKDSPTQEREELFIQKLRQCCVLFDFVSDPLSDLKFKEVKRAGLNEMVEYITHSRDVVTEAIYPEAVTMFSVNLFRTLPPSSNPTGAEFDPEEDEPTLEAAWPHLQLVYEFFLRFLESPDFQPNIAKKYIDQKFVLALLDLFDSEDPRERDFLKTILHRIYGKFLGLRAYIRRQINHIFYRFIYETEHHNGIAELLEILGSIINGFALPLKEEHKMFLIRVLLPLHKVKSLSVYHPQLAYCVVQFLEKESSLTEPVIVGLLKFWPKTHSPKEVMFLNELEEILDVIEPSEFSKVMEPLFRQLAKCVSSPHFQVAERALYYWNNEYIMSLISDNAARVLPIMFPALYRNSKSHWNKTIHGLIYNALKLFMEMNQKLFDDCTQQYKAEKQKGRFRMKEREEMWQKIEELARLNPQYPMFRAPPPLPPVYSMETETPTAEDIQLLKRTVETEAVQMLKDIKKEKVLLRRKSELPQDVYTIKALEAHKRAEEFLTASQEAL
Chain of wild type (WT) FLAG epitope-tagged version of PP2A Aβ (P30154 whole entry): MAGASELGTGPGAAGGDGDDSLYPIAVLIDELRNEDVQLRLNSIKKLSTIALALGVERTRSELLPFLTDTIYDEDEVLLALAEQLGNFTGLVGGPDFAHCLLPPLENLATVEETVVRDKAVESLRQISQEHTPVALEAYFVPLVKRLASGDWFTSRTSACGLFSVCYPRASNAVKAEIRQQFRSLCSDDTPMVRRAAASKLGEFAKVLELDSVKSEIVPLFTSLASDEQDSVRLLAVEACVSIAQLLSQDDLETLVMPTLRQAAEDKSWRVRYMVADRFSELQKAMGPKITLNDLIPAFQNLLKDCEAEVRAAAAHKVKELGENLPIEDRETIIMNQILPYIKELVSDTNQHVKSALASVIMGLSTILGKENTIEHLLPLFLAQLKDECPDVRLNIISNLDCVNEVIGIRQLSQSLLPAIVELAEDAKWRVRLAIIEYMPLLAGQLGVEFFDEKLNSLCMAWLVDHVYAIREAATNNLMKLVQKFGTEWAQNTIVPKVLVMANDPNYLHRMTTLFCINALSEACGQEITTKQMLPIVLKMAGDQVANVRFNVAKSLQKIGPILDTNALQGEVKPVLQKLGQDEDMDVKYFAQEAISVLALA
Chain of cancer-derived FLAG-tagged PP2A Aβ mutant G8R (P30154 other isoform, or with tags, fused parts or gaps limits assumed, stated change not applied): as the sequence (P30154 whole entry) above, with G8R counted along it

One assay deals with endogenous RalA (human) (UniProt P11233). The experiment in a line: cell-based or functional assay.
Chain of endogenous RalA (human) (P11233 1-203 limits assumed): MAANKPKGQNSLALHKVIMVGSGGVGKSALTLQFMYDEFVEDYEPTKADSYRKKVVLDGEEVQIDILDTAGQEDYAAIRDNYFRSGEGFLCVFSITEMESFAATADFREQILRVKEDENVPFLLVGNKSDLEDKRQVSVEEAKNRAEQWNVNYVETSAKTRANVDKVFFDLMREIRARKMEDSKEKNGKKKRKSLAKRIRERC
Substance “endogenous PP2A Aβ (from UniProt P30154 2-601)” came in with a GTP-bound RalA levels (RalA activation assay, RalBP1 agarose pull-down) of 4.5 fold.

A further assay has as its target PP2A regulatory subunit B56δ (human (endogenous in human HEK TER cells)) (UniProt Q14738). The experiment in a line: anti-FLAG co-IP from HEK TER cells, immunoblot, densitometry; +++ >90%, ++ 50-90%, + <50%.
Take “cancer-derived FLAG-tagged PP2A Aβ mutant D504G (from UniProt P30154 1-601)”: the binding level (percent, co-immunoprecipitation densitometry) was over 90%. Take “cancer-derived FLAG-tagged PP2A Aβ mutant G8R (from UniProt P30154 1-601)”: the binding level (percent, co-immunoprecipitation densitometry) was under 50%. For the substance “cancer-derived FLAG-tagged PP2A Aβ mutant K343E (from UniProt P30154 1-601)”, the binding level (percent, co-immunoprecipitation densitometry) lay within 50 to 90%. For the substance “cancer-derived FLAG-tagged PP2A Aβ mutant P65S (from UniProt P30154 1-601)”, the binding level (percent, co-immunoprecipitation densitometry) fell in the range of 50 to 90%.

Consider “wild type (WT) FLAG epitope-tagged version of PP2A Aβ (from UniProt P30154 1-601)”, for which the binding level (percent, co-immunoprecipitation densitometry) was over 90%.
